Measurements from patent US20210230248A1, “Multivalent pharmacophores for high avidity and overexpressed-target specific binding and uses thereof” (priority 2020, published 2021).
Entries after “also recorded” stand apart in the source; their conditions may differ. Values belong to the substance of their own block, whether it stands above or below them. Where no end group is shown, it is not given here.

Legend:
[1] = molecular target: T1, PD-L1 overexpressing SU-DHL-1 cells (Homo sapiens, UniProt Q9NZQ7); experiment: Competitive binding assay on PD-L1 overexpressing SU-DHL-1 cells; conditions: antibody at ~33.3 nM, assuming linear relationship
T1 construct: endogenous in cells; host or cells: SU-DHL-1 cells
T1 sequence (Q9NZQ7 19-290): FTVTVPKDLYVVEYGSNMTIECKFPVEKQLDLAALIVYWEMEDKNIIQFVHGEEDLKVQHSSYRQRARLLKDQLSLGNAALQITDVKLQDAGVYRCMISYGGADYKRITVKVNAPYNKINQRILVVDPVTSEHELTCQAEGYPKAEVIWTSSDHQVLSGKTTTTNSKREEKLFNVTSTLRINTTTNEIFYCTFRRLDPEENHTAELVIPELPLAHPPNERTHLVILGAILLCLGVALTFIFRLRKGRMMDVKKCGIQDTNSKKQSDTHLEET
Experimental: PC3, a low PD-L1 expressing cell is used as a control.
PE-conjugated mouse anti-human PD-L1 antibody (Clone MIN1, eBioscience) at the final concentration of 0.5 μg/100 μL (˜33.3 nM) was mixed with 4-arm PEG-2K PD-1ecto or 6-arm PEG-3.4K PD-1ecto titrated from 50 nM to 1 nM in Stain Buffer. SU-DHL-1 cells (0.5×10^6 cells) were resuspended in each titration of reagent in a final volume of 100 μL per well. After incubation for 3 h on ice with occasional mixing, the cells were washed 3 times. The amount of anti-PD-L1 antibody bound to the cells was quantified by the fluorescence intensity of PE using flow cytometry.

[2] = molecular target: T2, HT-1080 cells in which the overexpressed uPAR is occupied by endogenous uPA (Homo sapiens, UniProt Q03405); experiment: Displacement of endogenous uPA from uPAR on HT-1080 cells; assay type: binding; conditions: various concentrations; 0.5-4 h on ice
T2 construct: endogenous in cells; host or cells: HT-1080 cells
T2 sequence (Q03405 23-305 limits assumed): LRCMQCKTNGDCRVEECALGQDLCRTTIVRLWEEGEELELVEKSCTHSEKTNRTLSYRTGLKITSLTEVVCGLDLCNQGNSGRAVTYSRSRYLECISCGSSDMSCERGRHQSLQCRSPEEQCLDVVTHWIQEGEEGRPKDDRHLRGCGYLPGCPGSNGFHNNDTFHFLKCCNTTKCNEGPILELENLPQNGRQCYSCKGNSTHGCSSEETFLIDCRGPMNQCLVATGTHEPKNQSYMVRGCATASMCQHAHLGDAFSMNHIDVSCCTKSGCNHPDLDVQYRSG
Experimental: Human fibrosarcoma cell HT-1080 overexpresses both uPA and uPAR and the uPAR is occupied by the endogenous uPA. […] As a control, the competitive potency of uPAR blocking antibody (Clone VIM5) was also tested.
HT-1080 cells were plated in 96-well plate at 30,000 cells/well in 100 μL DMEM medium supplemented with 10% FBS. After overnight incubation, the culture medium was removed and 4-arm PEG-GFD, 6-arm PEG-GFD and mouse anti-uPAR antibody (Clone VIM5, Invitrogen) with various concentrations in Stain Buffer were added into each well. The cells were incubated on ice for 0.5, 1, 2, 3 and 4 h. Then, the cells were washed twice with cold PBS and fixed in 4% paraformaldehyde for 30 min. The plate was blocked with 3% MSD Blocking Buffer for 1 h and the cells were stained with mouse anti-human uPA catalytic domain antibody (Clone 204212; R&D Systems) to quantify the amount of endogenous uPA still associated with the cells. After 2 h incubation with the antibody, HRP-conjugated anti-mouse antibody was added for another hour of incubation. TMB was then added and followed by addition of stop solution. The plate was read at 450 nm absorbance to quantify the endogenous uPA.

[3] = tested on: H1299, SW480, HT-1080 and PC3 cells; experiment: Cell adhesion assay on vitronectin coated plate; assay type: cell-based, human; conditions: four uPAR overexpressing cell lines; 3 h; various concentrations
Experimental: For adhesion of cancer cells to vitronectin, 96-well plate was coated overnight with vitronectin (Thermo Fisher Scientific) at 5 μg/mL in PBS at 4° C., 50 μL/well. The wells without coating were used as negative controls. The plate was then blocked with 3% MSD Blocking Buffer for 2 h at room temperature. Four uPAR overexpressing human cancer lines were used for the assay: non-small cell lung cancer line H1299, colorectal cancer line SW480, fibrosarcoma line HT-1080 and prostate cancer line PC3. The cells were detached from culture flasks by trypsin/EDTA, resuspended in complete culture medium in a 50 mL conical tube, and incubated for 1 h at 37° C. in 5% CO2 incubator to allow receptor recovery. Cells were then washed with serum-free medium and resuspended in DMEM medium with 0.5% BSA. 50,000 cells in 100 μL were plated into each well with various concentrations of 4-arm and 6-arm PEG-GFD pharmacophores, and uPAR blocking antibody, VIM5. The plates were incubated at 37° C. in 5% CO2 incubator for 3 h, and washed 4 times with PBS with 0.5% BSA. The number of adherent cells in each well was quantified by CellTiter-Glo (Promega).

H1299 and HT-1080 cells [4] = experiment: Matrigel invasion assay; assay type: cell-based, human; conditions: 10 nM, 24 h
Experimental: The migration of cells through Matrigel indicates the ability of the cells to digest the extracellular matrix during the process of migration. The Matrigel invasion assay is similar to the chemotaxis assay above except that the 8 μm pore size filter is coated with Matrigel. BD BioCoat Matrigel Invasion Chamber (Corning) was used for the assay with H1299 and HT-1080 cells. 4-arm PEG-GFD, 6-arm PEG-GFD and the blocking antibody VIM5 were used at the concentration of 10 nM. After 24 h treatment, the Matrigel along with the cells remaining on the upper surface of filter in the upper chamber was scraped off with a cotton swab. The migrated cells were measured with CellTiter-Glo as described above.

[5] = molecular target: T3, uPAR overexpressing Hela cells (Homo sapiens, UniProt Q03405); experiment: Competitive binding assay on uPAR overexpressing Hela cells; conditions: ratio of IC50 values
T3 construct: endogenous in cells; host or cells: Hela cells
T3 sequence (Q03405 23-335): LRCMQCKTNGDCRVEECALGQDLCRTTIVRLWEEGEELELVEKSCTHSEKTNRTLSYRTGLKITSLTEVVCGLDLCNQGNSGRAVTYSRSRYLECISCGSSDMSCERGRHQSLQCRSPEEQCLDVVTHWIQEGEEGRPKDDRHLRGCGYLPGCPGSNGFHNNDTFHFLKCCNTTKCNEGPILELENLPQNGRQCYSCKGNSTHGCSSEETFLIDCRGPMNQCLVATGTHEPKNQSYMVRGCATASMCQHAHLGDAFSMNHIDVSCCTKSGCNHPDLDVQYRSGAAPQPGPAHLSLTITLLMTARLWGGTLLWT
Source text: This assay is to measure the binding avidity of multivalent PEG-GFD pharmacophores to uPAR overexpressing Hela cells in comparison to uPA. Hela cells express uPAR but not uPA (Rabbani et al., Neoplasia, 2010, 12(10); 778-88), and therefore competition from endogenous uPA can be excluded.
Mouse anti-uPAR (Clone VIM5) is an uPAR blocking antibody (Sillaber et al., J Biol Chem, 1997, 272(12):7824-32). The potency of multivalent PEG-GFD pharmacophores and native uPA to compete against the antibody in binding to the overexpressed uPAR on the surface of Hela cells is measured and compared in this assay.
Hela cells were detached from culture flasks by trypsin/EDTA, resuspended in complete culture medium in a 50 mL conical tube, and incubated for 1 h at 37° C. in 5% CO2 incubator to allow receptor recovery. PE-conjugated anti-uPAR antibody (Clone VIM5; Invitrogen) at the final concentration of 0.5 μg/100 μL (33.33 nM) was mixed with titrated concentrations of 4-arm PEG-GFD and 6-arm PEG-GFD, and recombinant human uPA (Biolegend) in Stain Buffer. The mixture was added into Hela cells (500,000 cells in 100 μL; final density). […] The fluorescent intensity of PE on Hela cells was quantified by flow cytometry and plotted against the titration of 4-arm PEG-GFD, 6-arm PEG-GFD and uPA. The binding avidity of multivalent PEG-GFD pharmacophores relative to native uPA can be calculated.

H1299 and HT-1080 cells [6] = experiment: Chemotaxis assay (fibronectin coated transwell); assay type: cell-based, human; conditions: 10% FBS chemoattractant, 16 h
Experimental: Chemotaxis assay was performed using BD BioCoat 24-well transwell with 8 μm pore size filter which is coated with fibronectin (Corning). For the study, H1299 and HT-1080 cells were detached from culture flasks with trypsin/EDTA, and then the trypsin was deactivated by adding the complete medium. The cells were washed with serum-free medium twice and resuspended at the final density of 50,000 cells in 500 μL DMEM medium supplemented with 0.5% BSA. The cells were treated with multivalent pharmacophores and uPAR blocking antibody for 1 h at 37° C. in 5% CO2 incubator. 650 μL of DMEM with 10% FBS was used as chemoattractant and added into the lower chamber. Serum-free DMEM medium was used as a negative control, and no drug treatment well was considered as 100% migration. After placing the upper chamber into the lower chamber, 500 μL cell suspensions were added to the upper chamber. 4-arm PEG-GFD, 6-arm PEG-GFD and uPAR blocking antibody, VIM5, with various concentrations were added in both upper and lower chambers. The transwell was incubated at 37° C. in 5% CO2 incubator for 16 h. […] The number of cells migrated past the filter was quantify by reading the solution in plate reader after transferring into a white 96-well plates.

Human recombinant PD-L2 = molecular target: T4, Human recombinant PD-L2 (Homo sapiens, UniProt Q9BQ51); experiment: Binding to PD-L2 coated MSD plate; conditions: test items at 5 nM; plate coated at 40 nM; FIG. 4B
T4 construct: purchased Abcam
T4 sequence (Q9BQ51 20-273): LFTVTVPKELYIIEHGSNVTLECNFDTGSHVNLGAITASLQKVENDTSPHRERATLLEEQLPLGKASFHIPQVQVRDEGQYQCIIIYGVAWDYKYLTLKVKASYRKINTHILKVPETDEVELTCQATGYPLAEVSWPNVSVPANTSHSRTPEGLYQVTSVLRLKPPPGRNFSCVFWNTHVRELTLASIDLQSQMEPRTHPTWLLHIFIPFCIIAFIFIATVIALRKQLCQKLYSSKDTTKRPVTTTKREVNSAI
Experimental: Human recombinant PD-L1, PD-L2 and CD80 (Abcam) at the concentration of 40 nM were coated onto wells of 96-well MSD plate (small spot, 40 μL/well) overnight at 4° C., and then blocked with 3% MSD Blocking Buffer for 1 h. […] The plates were shaken for another 1 h at room temperature. After washing, SULFO-TAG anti-mouse IgG antibody was added into the plates. The plates were further incubated for 1 h and then washed and read after adding 1×MSD Read Buffer. SULFO-TAG anti-human IgG antibody was added into the plate of PD-L1 Fc chimera proteins. The wells without coating were used as background binding.

CD47 = CD47 (Homo sapiens, UniProt Q08722); conditions: Ho et al. 2015; read-out: Kd CD47/SIRPα; cited from earlier work
Chain of CD47 (Q08722 19-323): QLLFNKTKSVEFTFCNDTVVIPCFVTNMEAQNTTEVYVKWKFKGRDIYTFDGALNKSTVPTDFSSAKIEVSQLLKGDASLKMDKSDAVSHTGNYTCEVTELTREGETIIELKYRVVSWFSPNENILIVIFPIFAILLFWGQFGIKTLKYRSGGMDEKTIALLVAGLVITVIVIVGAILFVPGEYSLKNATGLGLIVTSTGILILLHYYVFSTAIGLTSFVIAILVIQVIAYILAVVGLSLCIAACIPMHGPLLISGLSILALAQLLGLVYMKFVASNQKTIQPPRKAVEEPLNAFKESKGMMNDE

fold more potent than the PD-L1 blocking antibody [1]: about 2.6 fold
Substance: 4-arm PEG-2K PD-1ecto: PD-1 ectodomain (aa. 21-169) site-specifically C-terminally conjugated to 4-arm PEG-2K, tetravalent pharmacophore

displacement of bound uPA from uPAR [2]: generally more potent than 4-arm PEG-GFD | fold increase in binding activity relative to native uPA [5]: ~85 fold
Substance: 6-arm PEG-GFD: growth factor-like domain of uPA conjugated to 6-arm PEG-3.4K (VPSNCDCLNGGTCVSNKYFSNIHWCNCPKKFGGQHCEIDKSKT; not fully specified (C-terminus); ends and bridges not checked; also: conjugated to 6-arm PEG-3.4K (site not given here))
inhibition of adhesion to vitronectin [3]: inhibited the adhesion of all four cell lines to vitronectin dose-dependently; also recorded: more potent than 4-arm PEG-GFD | Matrigel invasion (H1299 and HT-1080 cells [4]): significantly inhibited | migration of cells to the lower chamber (chemotaxis) (H1299 and HT-1080 cells [6]): significantly reduced migration

binding to PD-L2 coated plate (Human recombinant PD-L2): bound
Substance: PD-1 Fc chimera: recombinant human PD-1 Fc chimera protein (R&D Systems) [reference compound]

Substance: SIRPα: signal-regulatory protein alpha, binds CD47 through its N-terminal IgV-like domain
Kd (CD47): 300 to 500 nM
